Results: patent US20190077836A1 (PANASONIC INTELLECTUAL PROPERTY MANAGEMENT, published 2019)

B1: VHH antibody including the amino acid sequence represented by SEQ ID NO: 8 (VHH)
VHH: QVQLVESGGGLVQTGGPLRLSCAVSDRTDSNYAMGWFRQAPGKEREFVAAISGTGYVTGYADSARNRFTLSRDNGKNAVYLQMNSLEPADTAVYYCAATSDQRYPGPRSSGYDYWGQGTQVTVSS
B2: monoclonal phage displaying the VHH antibody (DNA SEQ ID NO: 18, amino acid sequence SEQ ID NO: 8) (VHH)
VHH: B1 VHH

Tests used:
[1] = target: recombinant nucleoprotein (NP) protein derived from influenza virus H1N1 to which a Flag tag was fus (influenza virus H1N1)
Sequence of recombinant nucleoprotein (NP) protein derived from influenza virus H1N1 to which a Flag tag was fus (influenza virus H1N1) (P03466 whole entry): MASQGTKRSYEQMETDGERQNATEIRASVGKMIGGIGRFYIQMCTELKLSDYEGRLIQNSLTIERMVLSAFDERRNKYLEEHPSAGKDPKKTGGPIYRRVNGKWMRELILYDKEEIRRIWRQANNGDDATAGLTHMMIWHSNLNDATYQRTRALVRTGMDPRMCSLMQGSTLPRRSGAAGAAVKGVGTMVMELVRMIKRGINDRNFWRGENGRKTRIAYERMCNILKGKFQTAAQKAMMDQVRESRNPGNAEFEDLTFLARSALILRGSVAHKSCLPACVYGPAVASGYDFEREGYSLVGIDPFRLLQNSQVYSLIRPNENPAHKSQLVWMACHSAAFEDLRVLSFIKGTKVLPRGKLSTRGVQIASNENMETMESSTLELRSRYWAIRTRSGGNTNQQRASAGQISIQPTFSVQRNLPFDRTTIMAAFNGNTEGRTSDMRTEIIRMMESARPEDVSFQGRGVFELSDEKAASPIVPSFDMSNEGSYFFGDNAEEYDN

[2] = target: T1, recombinant intranuclear protein (SEQ ID NO: 24) derived from a type-A influenza virus H1N1 (A/Puerto … (type-A influenza virus H1N1 (A/Puerto …, UniProt P03466 1-498))); assay: phage ELISA on immobilised NP, anti-M13 antibody detection, absorbance at 450 nm
T1 construct: also called NP; NP antigen
T1 sequence (P03466 whole entry): as above

| Binder | Kd [1] [nM] | binding result [2] |
| --- | --- | --- |
| B1 | 0.199 | – |
| B2 | – | binds |
